This is an account of results in US11135223B2, “Compositions and methods for inhibiting Dkk-1” (YALE UNIVERSITY, priority 2016, dated 2021).

The subject of the experiment is leukocytes. In words: Exogenous administration of Dkk-1 protein to mice. Format: in vivo, C57BL/6 mice. On the procedure: FIG. 11, comprising FIG. 11A through FIG. 11J, depicts results of experiments showing Dkk-1 facilitates leukocyte migration and regulates leukocyte-platelet aggregate formation in type 2 inflammation. FIG. 11A depicts flow cytometry analysis of CD45^+ cells in lung homogenates from nine-week old Dkk-1^d/d mice and wildtype littermate controls (n=5-6/group) 72 hours after challenge with 30 μg HDM allergen extract. FIG. 11B depicts analysis of percentages of CD45^+CD41^+ cells in peripheral blood from nine-week old Dkk-1^d/d mice and wildtype littermate controls collected at 4 hours and 24 hours after allergen challenge. FIG. 11C depicts flow cytometry analysis of CD45+ cells after Dkk-1 protein (300 ng/mouse) was injected intraperitoneally. […]
FIG. 12, comprising FIG. 12A through FIG. 12G, depicts results of experiments showing regulation of LPA formation by Dkk-1. […] B-cell and CD4 T cell among CD45^+CD41^+ cells were monitored at the indicated time points in Dkk-1^d/d mice and their wildtype littermate controls challenged with 30 μg HDM extract/mouse. […] Mean fluorescence intensity was normalized to unchallenged C57BL/6 mice. […] Normalized MFI for ICAM-1 expression and the percentages of LFA-1 high cells were measured by flow cytometry following injection of 300 ng of Dkk-1 intraperitoneally. […]

B1: Dkk-1: Wnt antagonist Dickkopf-1 protein, expressed in CHO cells, added to cells or injected into mice (protein, UniProt O94907 32-266, looked up)
Dickkopf-related protein 1: TLNSVLNSNAIKNLPPPLGGAAGHPGSAVSAAPGILYPGGNKYQTIDNYQPYPCAEDEECGTDEYCASPTRGGDAGVQICLACRKRRKRCMRHAMCCPGNYCKNGICVSSDQNHFRGEIEETITESFGNDHSTLDGYSRRTTLSSKMYHTKGQEGSVCLRSSDCASGLCCARHFWSKICKPVLKEGQVCTKHRRKGSHGLEIFQRCYCGEGLSCRIQKDHHQASNSSRLHTCQRH
For the molecule B1, the LPA formation entry (300 ng of Dkk-1, without allergen or parasite challenge) is reported as “increased”. The “number of infiltrated leukocytes in the lung” value (300 ng/mouse intraperitoneally, 72 hours after administration) is “did not increase”.
